Assay results as given in the supplement of paper PMC9112550, “Optimization of the antimicrobial peptide Bac7 by deep mutational scanning” (BMC Biology, 2022).

The sequences below were run on Escherichia coli TOP10 (assay: shrunken log2 fold change of peptide-encoding DNA abundance (4.5 h post-induction vs induction); higher = less antimicrobial activity (less host growth inhibition)). Settings: time post-induction: 4.5 h; library: site-saturation at positions 5, 18, 19, 20.
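Further: peptides expressed intracellularly from a pBAD plasmid library in pooled LB shake-flask culture, induced with 0.3% L-arabinose, DNA abundance read by NGS, three biological replicates, DESeq2 with apeglm shrinkage.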

Sequence	shrunken log2 fold change
RRIRLRPPRLPRPRPRPDYPPRP	-0.307
RRIRARPPRLPRPRPRPGNIPRP	-0.239
RRIRFRPPRLPRPRPRPFYRPRP	-0.202
RRIRFRPPRLPRPRPRPLQDPRP	0.118
RRIRIRPPRLPRPRPRPACEPRP	0.17
RRIRHRPPRLPRPRPRPQWVPRP	0.0322
RRIRWRPPRLPRPRPRPAWTPRP	0.428
RRIRSRPPRLPRPRPRPDFDPRP	0.0818
RRIRDRPPRLPRPRPRPGMLPRP	-0.0263
RRIRPRPPRLPRPRPRPMSEPRP	-0.327
RRIRSRPPRLPRPRPRPAIVPRP	0.385
RRIRARPPRLPRPRPRPTRMPRP	0.865
RRIRCRPPRLPRPRPRPEQIPRP	0.259
RRIRKRPPRLPRPRPRPRIEPRP	0.112
RRIRGRPPRLPRPRPRPAMCPRP	0.465
RRIRPRPPRLPRPRPRPDVQPRP	0.234
RRIRYRPPRLPRPRPRPTNHPRP	-0.709
RRIRLRPPRLPRPRPRPVLWPRP	0.389
RRIRDRPPRLPRPRPRPYIAPRP	-0.652
RRIRNRPPRLPRPRPRPFNIPRP	0.0411
RRIRDRPPRLPRPRPRPPVLPRP	0.267
RRIRLRPPRLPRPRPRPNIKPRP	-0.321
RRIRGRPPRLPRPRPRPFLGPRP	0.0188
RRIRHRPPRLPRPRPRPGTYPRP	-0.0156
RRIRIRPPRLPRPRPRPTVGPRP	0.152

Sequence	shrunken log2 fold change
RRIRWRPPRLPRPRPRPIPYPRP	-0.031
RRIRRRPPRLPRPRPRPYEDPRP	-0.08
RRIRVRPPRLPRPRPRPDLWPRP	0.115
RRIRKRPPRLPRPRPRPGWQPRP	0.347
RRIRRRPPRLPRPRPRPHEEPRP	0.0957
RRIRLRPPRLPRPRPRPLIWPRP	0.0251
RRIRGRPPRLPRPRPRPSNIPRP	1.1
RRIRCRPPRLPRPRPRPFPGPRP	-0.0106
RRIRRRPPRLPRPRPRPHKHPRP	-0.165
RRIRFRPPRLPRPRPRPYQMPRP	-0.0843
RRIRWRPPRLPRPRPRPMDKPRP	-0.194
RRIRRRPPRLPRPRPRPVRVPRP	0.791
RRIRSRPPRLPRPRPRPNACPRP	0.0406
RRIRSRPPRLPRPRPRPMICPRP	-0.0898
RRIRYRPPRLPRPRPRPKSGPRP	0.0623
RRIRDRPPRLPRPRPRPMAAPRP	0.0982
RRIRKRPPRLPRPRPRPHNFPRP	-0.0511
RRIRMRPPRLPRPRPRPFYPPRP	-0.401
RRIRMRPPRLPRPRPRPFVEPRP	-0.0699
RRIRQRPPRLPRPRPRPATMPRP	-0.0699
RRIRNRPPRLPRPRPRPDNSPRP	-0.188
RRIRYRPPRLPRPRPRPIVVPRP	-0.414
RRIRYRPPRLPRPRPRPVQSPRP	-0.017
RRIRSRPPRLPRPRPRPGHDPRP	-0.0796
RRIRSRPPRLPRPRPRPVQGPRP	0.108

Sequence	shrunken log2 fold change
RRIRIRPPRLPRPRPRPCMDPRP	-0.695
RRIRWRPPRLPRPRPRPYEKPRP	-0.139
RRIRSRPPRLPRPRPRPPKGPRP	0.144
RRIRTRPPRLPRPRPRPYVWPRP	-0.131
RRIRQRPPRLPRPRPRPWYNPRP	-0.375
RRIRERPPRLPRPRPRPHGKPRP	-0.0244
RRIRMRPPRLPRPRPRPEDNPRP	0.0325
RRIRARPPRLPRPRPRPKGPPRP	0.212
RRIRRRPPRLPRPRPRPAEIPRP	1.1
RRIRCRPPRLPRPRPRPAIKPRP	-0.738
RRIRSRPPRLPRPRPRPIEFPRP	-0.387
RRIRPRPPRLPRPRPRPDALPRP	0.0315
RRIRDRPPRLPRPRPRPSDRPRP	0.159
RRIRGRPPRLPRPRPRPFYGPRP	-0.0443
RRIRIRPPRLPRPRPRPMERPRP	-0.0018
RRIRRRPPRLPRPRPRPTNCPRP	-0.197
RRIRARPPRLPRPRPRPFNEPRP	-0.1
RRIRARPPRLPRPRPRPTHQPRP	0.528
RRIRARPPRLPRPRPRPPFFPRP	0.603
RRIRYRPPRLPRPRPRPAPKPRP	0.207
RRIRDRPPRLPRPRPRPSWDPRP	0.199
RRIRWRPPRLPRPRPRPRFEPRP	0.225
RRIRRRPPRLPRPRPRPFVVPRP	0.0981
RRIRYRPPRLPRPRPRPVKYPRP	-0.135
RRIRKRPPRLPRPRPRPWLCPRP	0.466

Sequence	shrunken log2 fold change
RRIRVRPPRLPRPRPRPCFLPRP	-0.493
RRIRFRPPRLPRPRPRPGYNPRP	-0.332
RRIRCRPPRLPRPRPRPEEYPRP	-0.065
RRIRPRPPRLPRPRPRPAPPPRP	0.726
RRIRKRPPRLPRPRPRPEDAPRP	0.054
RRIRGRPPRLPRPRPRPGMLPRP	0.498
RRIRSRPPRLPRPRPRPWCEPRP	-0.291
RRIRTRPPRLPRPRPRPVQHPRP	-0.217
RRIRVRPPRLPRPRPRPNNDPRP	-0.335
RRIRMRPPRLPRPRPRPDNYPRP	-0.0552
RRIRCRPPRLPRPRPRPSKPPRP	-0.109
RRIRDRPPRLPRPRPRPPAKPRP	0.443
RRIRNRPPRLPRPRPRPFCHPRP	-0.476
RRIRPRPPRLPRPRPRPIIYPRP	-0.256
RRIRVRPPRLPRPRPRPQEVPRP	-0.186
RRIRARPPRLPRPRPRPQLIPRP	0.184
RRIRCRPPRLPRPRPRPQFAPRP	-0.239
RRIRPRPPRLPRPRPRPPFDPRP	0.228
RRIRRRPPRLPRPRPRPEMQPRP	0.114
RRIRNRPPRLPRPRPRPYNWPRP	-0.161
RRIRYRPPRLPRPRPRPGTRPRP	-0.393
RRIRKRPPRLPRPRPRPKLTPRP	0.104
RRIRIRPPRLPRPRPRPFWIPRP	-0.193
RRIRCRPPRLPRPRPRPNQWPRP	-0.117
RRIRSRPPRLPRPRPRPTHTPRP	0.106

Sequence	shrunken log2 fold change
RRIRIRPPRLPRPRPRPAWVPRP	0.0748
RRIRMRPPRLPRPRPRPTAAPRP	2.79
RRIRNRPPRLPRPRPRPEGAPRP	2.8
RRIRFRPPRLPRPRPRPGYSPRP	-0.934
RRIRQRPPRLPRPRPRPMVWPRP	-0.0183
RRIRLRPPRLPRPRPRPDFNPRP	-0.444
RRIRCRPPRLPRPRPRPDTFPRP	0.0257
RRIRMRPPRLPRPRPRPRKWPRP	0.363
RRIRMRPPRLPRPRPRPKAMPRP	0.705
RRIRERPPRLPRPRPRPPLQPRP	-0.176
RRIRYRPPRLPRPRPRPLPMPRP	-0.624
RRIRIRPPRLPRPRPRPAQMPRP	-0.0791
RRIRVRPPRLPRPRPRPIAQPRP	-0.061
RRIRTRPPRLPRPRPRPYRQPRP	-0.00615
RRIRPRPPRLPRPRPRPEHEPRP	0.0185
RRIRFRPPRLPRPRPRPHTPPRP	1.24
RRIRQRPPRLPRPRPRPKKVPRP	-0.0514
RRIRFRPPRLPRPRPRPEVYPRP	0.000414
RRIRIRPPRLPRPRPRPRKVPRP	-0.0904
RRIRSRPPRLPRPRPRPVSWPRP	0.437
RRIRVRPPRLPRPRPRPFWDPRP	-0.0687
RRIRMRPPRLPRPRPRPRRAPRP	1.55
RRIRKRPPRLPRPRPRPLRFPRP	0.896
RRIRWRPPRLPRPRPRPQMSPRP	-0.149
RRIRYRPPRLPRPRPRPKMCPRP	0.00281
